Data as given in US7521047.

Assays:
[1] = molecular target: chimeric 0401-IE class II molecule on cells of transgenic mice (human/murine chimera); experiment: cell-based or functional assay
[2] = molecular target: HLA-DR on HD-MY-Z cells (human); experiment: cell-based or functional assay
[3] = molecular target: HLA-DR on RPMI-8226 cells (human); experiment: cell-based or functional assay
[4] = molecular target: HLA-DR on GRANTA-519 cells (human); experiment: cell-based or functional assay
[5] = molecular target: HLA-DR on MHH-CALL-4 cells (human); experiment: cell-based or functional assay
[6] = molecular target: HLA-DR on BJAB cells (human); experiment: cell-based or functional assay
[7] = molecular target: HLA-DR on KARPAS-422 cells (human); experiment: cell-based or functional assay
[8] = molecular target: HLA-DR on MHH-PREB-1 cells (human); experiment: cell-based or functional assay
[9] = molecular target: HLA-DR on SR-786 cells (human); experiment: cell-based or functional assay
[10] = molecular target: HLA-DR on LP-1 cells (human); experiment: cell-based or functional assay
[11] = molecular target: HLA-DR on EOL-1 cells (human); experiment: cell-based or functional assay
[12] = molecular target: HLA-DR on L1236 cells (human); experiment: cell-based or functional assay
[13] = molecular target: HLA-DR on KM-H2 cells (human); experiment: cell-based or functional assay
[14] = molecular target: HLA-DR on chronic lymphoid leukemia (CLL) cells of patients (human); experiment: cell-based or functional assay
[15] = molecular target: HLA-DR on MN-60 cells (human); experiment: cell-based or functional assay
[16] = molecular target: HLA-DR on L-363 cells (human); experiment: cell-based or functional assay
[17] = molecular target: HLA-DR on DOHH-2 cells (human); experiment: cell-based or functional assay
[18] = molecular target: HLA-DR on NALM-1 cells (human); experiment: flow cytometry, NALM-1 cells stained with FITC-labelled L243 (HLA-DR expression)
[19] = molecular target: HLA-DR on BJAB cells (human); experiment: flow cytometry, BJAB cells stained with FITC-labelled L243 (HLA-DR expression)
[20] = molecular target: HLA-DR on HDLM-2 cells (human); experiment: flow cytometry, HDLM-2 cells stained with FITC-labelled L243 (HLA-DR expression)
[21] = molecular target: HLA-DR on LP-1 cells (human); experiment: flow cytometry, LP-1 cells stained with FITC-labelled L243 (HLA-DR expression)
[22] = molecular target: HLA-DR on RPMI-8226 cells (human); experiment: flow cytometry, RPMI-8226 cells stained with FITC-labelled L243 (HLA-DR expression)
[23] = molecular target: HLA-DR on GRANTA-519 cells (human); experiment: flow cytometry, GRANTA-519 cells stained with FITC-labelled L243 (HLA-DR expression)
[24] = molecular target: HLA-DR on L-428 cells (human); experiment: flow cytometry, L-428 cells stained with FITC-labelled L243 (HLA-DR expression)
[25] = molecular target: HLA-DR on MHH-CALL-4 cells (human); experiment: flow cytometry, MHH-CALL-4 cells stained with FITC-labelled L243 (HLA-DR expression)
[26] = molecular target: HLA-DR on KARPAS-299 cells (human); experiment: flow cytometry, KARPAS-299 cells stained with FITC-labelled L243 (HLA-DR expression)
[27] = molecular target: HLA-DR on LG-2 cells (human); experiment: flow cytometry, LG-2 cells stained with FITC-labelled L243 (HLA-DR expression)
[28] = molecular target: HLA-DR on RAJI cells (human); experiment: flow cytometry, RAJI cells stained with FITC-labelled L243 (HLA-DR expression)
[29] = molecular target: HLA-DR (allele and form not stated); experiment: not stated (Z. A. Nagy, unpublished)
[30] = molecular target: HLA-DR on HC-1 cells (human); experiment: flow cytometry, HC-1 cells stained with FITC-labelled L243 (HLA-DR expression)
[31] = molecular target: HLA-DR on DOHH-2 cells (human); experiment: flow cytometry, DOHH-2 cells stained with FITC-labelled L243 (HLA-DR expression)
[32] = molecular target: HLA-DR on HD-MY-Z cells (human); experiment: flow cytometry, HD-MY-Z cells stained with FITC-labelled L243 (HLA-DR expression)
[33] = molecular target: HLA-DR on EOL-1 cells (human); experiment: flow cytometry, EOL-1 cells stained with FITC-labelled L243 (HLA-DR expression)
[34] = molecular target: HLA-DR on KM-H2 cells (human); experiment: flow cytometry, KM-H2 cells stained with FITC-labelled L243 (HLA-DR expression)
[35] = molecular target: HLA-DR on SR-786 cells (human); experiment: flow cytometry, SR-786 cells stained with FITC-labelled L243 (HLA-DR expression)
[36] = molecular target: HLA-DR on KARPAS-422 cells (human); experiment: flow cytometry, KARPAS-422 cells stained with FITC-labelled L243 (HLA-DR expression)
[37] = molecular target: HLA-DR on BONNA-12 cells (human); experiment: flow cytometry, BONNA-12 cells stained with FITC-labelled L243 (HLA-DR expression)
[38] = molecular target: HLA-DR on ARH-77 cells (human); experiment: flow cytometry, ARH-77 cells stained with FITC-labelled L243 (HLA-DR expression)
[39] = molecular target: HLA-DR on MN-60 cells (human); experiment: flow cytometry, MN-60 cells stained with FITC-labelled L243 (HLA-DR expression)
[40] = molecular target: HLA-DR on MHH-CALL-2 cells (human); experiment: cell-based or functional assay
[41] = molecular target: HLA-DR on HC-1 cells (human); experiment: cell-based or functional assay
[42] = molecular target: HLA-DR on L-428 cells (human); experiment: cell-based or functional assay
[43] = molecular target: HLA-DR on HDLM-2 cells (human); experiment: cell-based or functional assay
[44] = molecular target: HLA-DR on LG-2 cells (human); experiment: cell-based or functional assay
[45] = molecular target: HLA-DR on KARPAS-299 cells (human); experiment: cell-based or functional assay
[46] = molecular target: HLA-DR on BONNA-12 cells (human); experiment: cell-based or functional assay
[47] = molecular target: HLA-DR on ARH-77 cells (human); experiment: cell-based or functional assay
[48] = molecular target: HLA-DR on NALM-1 cells (human); experiment: cell-based or functional assay
[49] = molecular target: HLA-DR on RAJI cells (human); experiment: cell-based or functional assay
[50] = molecular target: HLA-DR on L-363 cells (human); experiment: flow cytometry, L-363 cells stained with FITC-labelled L243 (HLA-DR expression)
[51] = molecular target: HLA-DR on L1236 cells (human); experiment: flow cytometry, L1236 cells stained with FITC-labelled L243 (HLA-DR expression)
[52] = molecular target: HLA-DR on MHH-PREB-1 cells (human); experiment: flow cytometry, MHH-PREB-1 cells stained with FITC-labelled L243 (HLA-DR expression)

Chain of L243 (antibody) (VH): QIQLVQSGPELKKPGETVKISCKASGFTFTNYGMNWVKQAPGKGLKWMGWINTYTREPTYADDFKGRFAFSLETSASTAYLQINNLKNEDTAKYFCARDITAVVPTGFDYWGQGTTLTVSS
Chain of L243 (antibody) (VL): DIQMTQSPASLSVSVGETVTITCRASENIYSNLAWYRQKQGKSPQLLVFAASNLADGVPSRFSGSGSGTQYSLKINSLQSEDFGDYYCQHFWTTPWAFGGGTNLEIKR
Chain of MS-GPC-8 IgG4 (antibody) (VH): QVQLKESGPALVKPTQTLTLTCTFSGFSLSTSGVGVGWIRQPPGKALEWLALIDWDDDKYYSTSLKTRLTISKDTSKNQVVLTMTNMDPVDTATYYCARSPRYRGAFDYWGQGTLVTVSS
Chain of MS-GPC-8 IgG4 (antibody) (VL): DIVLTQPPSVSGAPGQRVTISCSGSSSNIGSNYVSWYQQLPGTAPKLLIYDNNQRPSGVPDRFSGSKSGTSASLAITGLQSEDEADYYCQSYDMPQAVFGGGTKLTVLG

Substance: MS-GPC-8 IgG4 (antibody)
- IC50 of inhibition of IL-2 secretion from T-Hyb 1 cells [1]: 11 nM
- Maximum inhibition(%) of IL-2 secretion [1]: 100%
- % Killing by mAb, 50 nM, 4 h [2]: 49%
- % Killing by mAb, 50 nM, 4 h [3]: 14%
- % Killing by mAb, 50 nM, 4 h [4]: 76%
- % Killing by mAb, 50 nM, 4 h [5]: 43%
- % Killing by mAb, 50 nM, 4 h [6]: 49%
- % Killing by mAb, 50 nM, 4 h [7]: 51%
- % Killing by mAb, 50 nM, 4 h [8]: 2%
- % Killing by mAb, 50 nM, 4 h [9]: 1%
- % Killing by mAb, 50 nM, 4 h [10]: 61%
- % Killing by mAb, 50 nM, 4 h [11]: 36%
- % Killing by mAb, 50 nM, 4 h [12]: 44%
- % Killing by mAb, 50 nM, 4 h [13]: 75%
- viable CLL cells after 24 hours, 100 nM IgG (told for all three human IgGs) [14]: 33%
- viable activated CLL cells after 4 hours, 100 nM IgG (average for all patient samples and antibodies) [14]: 24%
- % Killing by mAb, 50 nM, 4 h [15]: 71%
- % Killing by mAb, 50 nM, 4 h [16]: 26%
- % Killing by mAb, 50 nM, 4 h [17]: 58%

Substance: L243 (antibody)
- MFL (mean fluorescence intensity) [18]: 1080 MFL
- MFL (mean fluorescence intensity) [19]: 338 MFL
- MFL (mean fluorescence intensity) [20]: 326 MFL
- MFL (mean fluorescence intensity) [21]: 315 MFL
- MFL (mean fluorescence intensity) [22]: 19 MFL
- MFL (mean fluorescence intensity) [23]: 1460 MFL
- MFL (mean fluorescence intensity) [24]: 244 MFL
- MFL (mean fluorescence intensity) [25]: 348 MFL
- MFL (mean fluorescence intensity) [26]: 798 MFL
- MFL (mean fluorescence intensity) [27]: 458 MFL
- MFL (mean fluorescence intensity) [28]: 617 MFL
- Kd [29]: 10 nM
- MFL (mean fluorescence intensity) [30]: 372 MFL
- MFL (mean fluorescence intensity) [31]: 444 MFL
- MFL (mean fluorescence intensity) [32]: 79 MFL
- MFL (mean fluorescence intensity) [33]: 536 MFL
- MFL (mean fluorescence intensity) [34]: 619 MFL
- MFL (mean fluorescence intensity) [35]: 142 MFL
- MFL (mean fluorescence intensity) [36]: 211 MFL
- MFL (mean fluorescence intensity) [37]: 2430 MFL
- MFL (mean fluorescence intensity) [38]: 301 MFL
- MFL (mean fluorescence intensity) [39]: 1120 MFL
- % Killing by mAb, 200 nM, 4 h [2]: 35%
- % Killing by mAb, 200 nM, 4 h [3]: 6%
- % Killing by mAb, 200 nM, 4 h [40]: 5%
- % Killing by mAb, 200 nM, 4 h [4]: 83%
- % Killing by mAb, 200 nM, 4 h [5]: 35%
- % Killing by mAb, 200 nM, 4 h [6]: 53%
- % Killing by mAb, 200 nM, 4 h [41]: 88%
- % Killing by mAb, 200 nM, 4 h [42]: 82%
- % Killing by mAb, 200 nM, 4 h [43]: 77%
- % Killing by mAb, 200 nM, 4 h [44]: 79%
- % Killing by mAb, 200 nM, 4 h [7]: 25%
- % Killing by mAb, 200 nM, 4 h [8]: 3%
- % Killing by mAb, 200 nM, 4 h [45]: 78%
- % Killing by mAb, 200 nM, 4 h [9]: 3%
- % Killing by mAb, 200 nM, 4 h [46]: 92%
- % Killing by mAb, 200 nM, 4 h [10]: 12%
- % Killing by mAb, 200 nM, 4 h [47]: 88%
- % Killing by mAb, 200 nM, 4 h [11]: 22%
- % Killing by mAb, 200 nM, 4 h [12]: 52%
- % Killing by mAb, 200 nM, 4 h [13]: 81%
- % Killing by mAb, 200 nM, 4 h [15]: 46%
- % Killing by mAb, 200 nM, 4 h [16]: 6%
- % Killing by mAb, 200 nM, 4 h [17]: 29%
- % Killing by mAb, 200 nM, 4 h [48]: 44%
- % Killing by mAb, 200 nM, 4 h [49]: 69%
- MFL (mean fluorescence intensity) [50]: 49 MFL
- MFL (mean fluorescence intensity) [51]: 41 MFL
- MFL (mean fluorescence intensity) [52]: 175 MFL
